# Assay results reported in article PMC8373075 (Nucleic Acids Research, 2021).
# B1: endogenous CBP80 (natural protein, human (endogenous in HEK293T), UniProt Q09161 1-790, looked up)
# chain: MSRRRHSDENDGGQPHKRRKTSDANETEDHLESLICKVGEKSACSLESNLEGLAGVLEADLPNYKSKILRLLCTVARLLPEKLTIYTTLVGLLNARNYNFGGEFVEAMIRQLKESLKANNYNEAVYLVRFLSDLVNCHVIAAPSMVAMFENFVSVTQEEDVPQVRRDWYVYAFLSSLPWVGKELYEKKDAEMDRIFANTESYLKRRQKTHVPMLQVWTADKPHPQEEYLDCLWAQIQKLKKDRWQERHILRPYLAFDSILCEALQHNLPPFTPPPHTEDSVYPMPRVIFRMFDYTDDPEGPVMPGSHSVERFVIEENLHCIIKSHWKERKTCAAQLVSYPGKNKIPLNYHIVEVIFAELFQLPAPPHIDVMYTTLLIELCKLQPGSLPQVLAQATEMLYMRLDTMNTTCVDRFINWFSHHLSNFQFRWSWEDWSDCLSQDPESPKPKFVREVLEKCMRLSYHQRILDIVPPTFSALCPANPTCIYKYGDESSNSLPGHSVALCLAVAFKSKATNDEIFSILKDVPNPNQDDDDDEGFSFNPLKIEVFVQTLLHLAAKSFSHSFSALAKFHEVFKTLAESDEGKLHVLRVMFEVWRNHPQMIAVLVDKMIRTQIVDCAAVANWIFSSELSRDFTRLFVWEILHSTIRKMNKHVLKIQKELEEAKEKLARQHKRRSDDDDRSSDRKDGVLEEQIERLQEKVESAQSEQKNLFLVIFQRFIMILTEHLVRCETDGTSVLTPWYKNCIERLQQIFLQHHQIIQQYMVTLENLLFTAELDPHILAVFQQFCALQA
# Biological target: T1, FLAG-CTIF-F460A (human, UniProt O43310 1-598, F460A)
# T1 sequence (looked up): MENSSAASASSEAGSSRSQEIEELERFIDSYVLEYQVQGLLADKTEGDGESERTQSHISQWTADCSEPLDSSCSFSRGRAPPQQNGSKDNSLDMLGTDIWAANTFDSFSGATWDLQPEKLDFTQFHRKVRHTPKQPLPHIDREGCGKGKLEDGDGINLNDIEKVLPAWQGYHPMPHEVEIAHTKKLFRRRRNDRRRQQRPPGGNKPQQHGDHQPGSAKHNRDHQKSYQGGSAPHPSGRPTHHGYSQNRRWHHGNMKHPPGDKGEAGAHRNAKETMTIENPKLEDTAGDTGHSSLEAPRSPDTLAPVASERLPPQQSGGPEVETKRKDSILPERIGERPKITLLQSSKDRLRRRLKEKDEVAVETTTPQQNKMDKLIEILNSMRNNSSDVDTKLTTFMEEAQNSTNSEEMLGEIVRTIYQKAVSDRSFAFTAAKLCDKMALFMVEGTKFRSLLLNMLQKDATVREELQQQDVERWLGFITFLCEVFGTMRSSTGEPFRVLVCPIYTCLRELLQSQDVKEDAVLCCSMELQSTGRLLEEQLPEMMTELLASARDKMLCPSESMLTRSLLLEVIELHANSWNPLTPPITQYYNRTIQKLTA
# Test: co-IP
binder,measurement,value
B1,fold change of the co-immunoprecipitated amount against the IP of CTIF-WT,~2.8 fold
